The source of these data is publication doi:10.1101/2021.05.23.445342.

Several values for one entry are separate records, joined by “and”; a condition that tells them apart may be missing. Equal values may be shown once.

Test [1] deals with Biotin-Cys-AKAP5c (human) (UniProt P24588). Nature of the test: SPR.
Test [2] concerns the target Biotin-Cys-AKAP5c_(ILVF->SA) (human) (UniProt P24588). Nature of the test: SPR. A general note: SPR reads the build-up and loss of mass on a sensor chip optically.
The target in test [3] is Calcineurin (human PPP3CA / PPP3R1 heterodimer) (human) (UniProt Q08209). As to the kind of experiment: AUC.

As usually defined, the Kd is the equilibrium constant for the complex coming apart. “Calcineurin (human PPP3CA / PPP3R1 heterodimer) (from UniProt Q08209 1-521; P63098 1-170) (complex)”: in test [1], the Kd of a further surface site class lay within 1 to 10 µM and the Kd of surface site class 1 (one or possibly two very similar sites) is 10 to 100 nM. In test [2], the Kd of the one main surface site class was 100 nM and 1000 nM. Further, in test [3], the equilibrium dissociation constant (Kd) amounted to 100 µM and the percent heterotetramer came to 8%.
